Experimental data taken from paper PMC5686127 (2017).

Legend:
CHD4 PHD1 (aa 362–417) = CHD4 PHD1 (aa 362–417) (human, UniProt Q14839 362-417); test: 150 mM NaCl
CHD4 PHD1/2 (aa 361–503) = CHD4 PHD1/2 (aa 361–503) (human, UniProt Q14839 361-503); test: 150 mM NaCl
[1] = target: CHD4 linker-PHD2 (aa 414–503) (human, UniProt Q14839 414-503); test: 150 mM NaCl
[2] = target: T1, CHD4 PHD1-linker (aa 361–443) (human, UniProt Q14839 361-443); test: 150 mM NaCl
CHD4 PHD2 (443–498) = CHD4 PHD2 (443–498) (human, UniProt Q14839 443-498); test: 150 mM NaCl
Chain of CHD4 PHD2 (443–498) (Q14839 443-498): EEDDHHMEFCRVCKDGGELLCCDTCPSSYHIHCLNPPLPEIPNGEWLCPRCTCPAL

[3] = target: T1, CHD4 PHD1-linker (aa 361–443); test: 75 mM NaCl

T1 sequence (Q14839 361-443): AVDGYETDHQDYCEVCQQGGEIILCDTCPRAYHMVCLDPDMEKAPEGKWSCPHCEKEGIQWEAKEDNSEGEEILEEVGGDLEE
Chain of CHD4 PHD1 (aa 362–417) (Q14839 362-417): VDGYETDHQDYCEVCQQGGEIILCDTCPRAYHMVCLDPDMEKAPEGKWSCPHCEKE
Chain of CHD4 linker-PHD2 (aa 414–503) (Q14839 414-503): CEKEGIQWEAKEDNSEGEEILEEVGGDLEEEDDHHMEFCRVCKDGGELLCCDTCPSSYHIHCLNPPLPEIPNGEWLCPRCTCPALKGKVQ
Chain of CHD4 PHD1/2 (aa 361–503) (Q14839 361-503): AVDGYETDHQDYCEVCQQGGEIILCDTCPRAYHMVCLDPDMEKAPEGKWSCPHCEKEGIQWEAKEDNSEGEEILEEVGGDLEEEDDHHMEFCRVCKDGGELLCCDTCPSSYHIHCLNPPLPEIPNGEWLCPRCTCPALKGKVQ

B1: histone H3 peptide (aa 1–12) (peptide)
peptide: ARTKQTARKSTG
Q: Which Kd (CHD4 PHD1 (aa 362–417)) does the source give for B1 here?
A: 18 µM

Q: What about the Kd (CHD4 PHD1/2 (aa 361–503)) of the same binder?
A: 220 nM

Q: What about the Kd [1] of the same binder?
A: 270 nM

Q: What about the Kd [2] of the same binder?
A: 500 nM

Q: And the Kd (CHD4 PHD2 (443–498))?
A: 3000 nM

Q: What about the Kd [3] of the same binder?
A: 300 nM
